According to patent US20160108128A1 (CANCER RESEARCH TECHNOLOGY, published 2016):

Tests used:
[1] = molecular target: T1, human Jagged 2, full length, on HEK293 cells (human, UniProt Q9Y219 24-1238); assay: FACS, 293-JAG2 cells, anti-human-APC
T1 construct: whole, on cells; also called J2; hJ2
Procedure: FIG. 18. […] Samples were analysed by FACS and the mean fluorescence intensities (MFI) were plotted. […] With the exception of J1-65D variants 13-16, all the remaining antibodies effectively bound the human J1 protein.
(§1) HEK293 cells transfected with human J1, J2 or FLAG-EGFP-tagged DSL-EGF3 constructs, B16F10 cells transfected with human DLL4 or mouse J1, and human cancer cell lines, were stained with either purified anti-J1 antibodies at 10 μg/ml diluted in FACS wash buffer (2% FBS in PBS+0.1% sodium azide) or neat hybridoma supernatants followed by a allophycocyanin (APC)-conjugated secondary antibody at 1:200 dilution: for murine primary antibodies, used goat anti-mouse-APC (eBioscience); for humanised and chimeric antibodies used goat anti-human IgG (H+L) secondary antibody (Jackson ImmunoResearch Laboratories). After washing, samples were fixed with 1% paraformaldehyde (in PBS) and acquired with a FACSCalibur. FACS data were analysed with FlowJo software (TreeStar Inc.).

[2] = molecular target: T2, murine Jagged 1, full length, on B16F10 cells (mouse, UniProt Q9QXX0 34-1218); assay: FACS, B16F10-mJAG1 cells, anti-human-APC
T2 construct: whole, on cells; GFP co-expressed; also called mJ1; B16F10-mJAG1
Procedure: FIG. 19. […] Samples were analysed by FACS and the mean fluorescence intensities (MFI) were plotted.
as §1

[3] = molecular target: T3, J1 DSL-EGF3 soluble recombinant protein (human Jagged 1 amino acids 185-335) (human, UniProt P78504 185-335); assay: affinity to the immunogen J1-DE3; method not stated
T3 construct: biotinylated in the CD46 ELISA; also called J1-DE3; DSL+EGF1-3

[4] = molecular target: T3, J1 DSL-EGF3 soluble recombinant protein …; assay: SPR (Biacore), mAb immobilised, J1 protein in flow
[5] = molecular target: T4, J1-NE3 (human Jagged 1, entire N-terminus until the third EGF domain) (human, UniProt P78504 32-335, limits assumed); assay: SPR (Biacore), mAb immobilised, J1 protein in flow
T4 construct: domain: entire N-terminus until the third EGF domain; eukaryotically expressed soluble form used in SPR

[6] = molecular target: T5, J1-NE12 (human Jagged 1, entire N-terminus to EGF12) (human, UniProt P78504 32-703); assay: SPR (Biacore), mAb immobilised, J1 protein in flow
T5 construct: domain: entire N-terminus to EGF12; eukaryotically expressed soluble form used in SPR

[7] = molecular target: T6, human Jagged 1, full length, on cells (human, UniProt P78504 34-1218); assay: FACS competition, HEK293-J1 cells, against biotinylated J1-65D 1.0 µg/ml
T6 construct: whole, on cells; the cell is named under assay; also called hJ1; J1

[8] = molecular target: T6, human Jagged 1, full length, on cells; assay: FACS competition, HEK293-J1 cells, against biotinylated J1-156A 1.0 µg/ml
[9] = molecular target: T6, human Jagged 1, full length, on cells; assay: FACS competition, HEK293-J1 cells, against biotinylated J1-187B 1.0 µg/ml

T6 sequence (P78504 34-1218): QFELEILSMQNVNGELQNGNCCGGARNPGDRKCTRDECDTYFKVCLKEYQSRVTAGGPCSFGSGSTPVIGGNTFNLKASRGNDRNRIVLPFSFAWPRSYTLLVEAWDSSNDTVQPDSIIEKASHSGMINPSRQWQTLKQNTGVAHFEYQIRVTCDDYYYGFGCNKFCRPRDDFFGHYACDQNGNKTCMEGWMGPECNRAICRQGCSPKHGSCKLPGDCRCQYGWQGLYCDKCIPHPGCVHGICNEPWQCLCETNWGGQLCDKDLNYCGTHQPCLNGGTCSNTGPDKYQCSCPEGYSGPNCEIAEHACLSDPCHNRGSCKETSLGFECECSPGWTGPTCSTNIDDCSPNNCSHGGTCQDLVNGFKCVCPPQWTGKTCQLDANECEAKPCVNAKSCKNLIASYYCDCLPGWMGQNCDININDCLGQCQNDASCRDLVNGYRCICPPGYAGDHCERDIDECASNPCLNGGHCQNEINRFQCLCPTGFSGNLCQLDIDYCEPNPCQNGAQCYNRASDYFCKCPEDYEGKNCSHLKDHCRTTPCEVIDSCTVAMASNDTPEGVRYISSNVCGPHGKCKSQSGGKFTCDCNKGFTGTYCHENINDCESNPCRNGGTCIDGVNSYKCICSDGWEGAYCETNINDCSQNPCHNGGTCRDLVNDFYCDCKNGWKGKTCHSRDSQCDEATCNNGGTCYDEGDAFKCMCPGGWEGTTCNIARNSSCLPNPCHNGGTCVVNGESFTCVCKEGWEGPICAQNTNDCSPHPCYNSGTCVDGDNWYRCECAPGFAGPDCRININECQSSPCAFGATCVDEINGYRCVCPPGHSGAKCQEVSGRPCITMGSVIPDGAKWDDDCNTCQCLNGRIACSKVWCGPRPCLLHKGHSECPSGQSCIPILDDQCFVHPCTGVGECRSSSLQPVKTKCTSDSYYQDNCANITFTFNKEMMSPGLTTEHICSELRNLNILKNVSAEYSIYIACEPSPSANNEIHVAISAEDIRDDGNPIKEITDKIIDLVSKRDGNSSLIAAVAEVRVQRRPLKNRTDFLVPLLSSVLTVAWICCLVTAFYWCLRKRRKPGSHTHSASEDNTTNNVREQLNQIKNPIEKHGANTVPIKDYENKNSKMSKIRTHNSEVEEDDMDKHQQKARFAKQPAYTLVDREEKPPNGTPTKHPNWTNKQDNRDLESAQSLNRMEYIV
T1 sequence (Q9Y219 24-1238): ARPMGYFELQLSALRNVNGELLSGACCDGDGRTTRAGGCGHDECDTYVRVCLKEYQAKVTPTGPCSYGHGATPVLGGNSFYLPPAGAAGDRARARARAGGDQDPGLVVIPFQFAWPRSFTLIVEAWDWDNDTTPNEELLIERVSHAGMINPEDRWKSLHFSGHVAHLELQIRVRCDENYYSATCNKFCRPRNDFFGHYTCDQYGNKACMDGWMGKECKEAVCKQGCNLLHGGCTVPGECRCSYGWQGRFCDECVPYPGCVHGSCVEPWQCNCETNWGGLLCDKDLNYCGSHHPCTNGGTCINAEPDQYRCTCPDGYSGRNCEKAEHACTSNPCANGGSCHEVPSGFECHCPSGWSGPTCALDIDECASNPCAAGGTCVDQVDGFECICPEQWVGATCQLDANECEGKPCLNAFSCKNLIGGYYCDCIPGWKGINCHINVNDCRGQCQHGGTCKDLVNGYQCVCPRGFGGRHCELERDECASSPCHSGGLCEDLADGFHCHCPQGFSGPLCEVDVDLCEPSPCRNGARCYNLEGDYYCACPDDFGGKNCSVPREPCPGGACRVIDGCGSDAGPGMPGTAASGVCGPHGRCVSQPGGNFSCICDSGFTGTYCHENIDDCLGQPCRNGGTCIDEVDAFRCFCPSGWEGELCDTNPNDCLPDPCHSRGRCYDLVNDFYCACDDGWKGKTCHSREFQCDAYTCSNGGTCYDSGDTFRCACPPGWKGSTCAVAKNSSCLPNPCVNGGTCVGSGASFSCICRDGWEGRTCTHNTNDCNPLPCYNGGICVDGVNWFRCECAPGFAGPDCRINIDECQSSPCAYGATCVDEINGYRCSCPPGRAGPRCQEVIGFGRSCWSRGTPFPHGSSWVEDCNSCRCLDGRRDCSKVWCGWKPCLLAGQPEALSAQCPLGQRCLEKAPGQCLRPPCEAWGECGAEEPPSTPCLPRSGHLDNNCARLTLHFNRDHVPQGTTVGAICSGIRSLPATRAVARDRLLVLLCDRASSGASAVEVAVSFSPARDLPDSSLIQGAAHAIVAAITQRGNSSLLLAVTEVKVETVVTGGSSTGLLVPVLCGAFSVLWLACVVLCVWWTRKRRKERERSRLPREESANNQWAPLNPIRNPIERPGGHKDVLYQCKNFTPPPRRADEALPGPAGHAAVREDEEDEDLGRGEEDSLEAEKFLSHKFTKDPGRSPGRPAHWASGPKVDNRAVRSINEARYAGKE
T2 sequence (Q9QXX0 34-1218, one chain of several): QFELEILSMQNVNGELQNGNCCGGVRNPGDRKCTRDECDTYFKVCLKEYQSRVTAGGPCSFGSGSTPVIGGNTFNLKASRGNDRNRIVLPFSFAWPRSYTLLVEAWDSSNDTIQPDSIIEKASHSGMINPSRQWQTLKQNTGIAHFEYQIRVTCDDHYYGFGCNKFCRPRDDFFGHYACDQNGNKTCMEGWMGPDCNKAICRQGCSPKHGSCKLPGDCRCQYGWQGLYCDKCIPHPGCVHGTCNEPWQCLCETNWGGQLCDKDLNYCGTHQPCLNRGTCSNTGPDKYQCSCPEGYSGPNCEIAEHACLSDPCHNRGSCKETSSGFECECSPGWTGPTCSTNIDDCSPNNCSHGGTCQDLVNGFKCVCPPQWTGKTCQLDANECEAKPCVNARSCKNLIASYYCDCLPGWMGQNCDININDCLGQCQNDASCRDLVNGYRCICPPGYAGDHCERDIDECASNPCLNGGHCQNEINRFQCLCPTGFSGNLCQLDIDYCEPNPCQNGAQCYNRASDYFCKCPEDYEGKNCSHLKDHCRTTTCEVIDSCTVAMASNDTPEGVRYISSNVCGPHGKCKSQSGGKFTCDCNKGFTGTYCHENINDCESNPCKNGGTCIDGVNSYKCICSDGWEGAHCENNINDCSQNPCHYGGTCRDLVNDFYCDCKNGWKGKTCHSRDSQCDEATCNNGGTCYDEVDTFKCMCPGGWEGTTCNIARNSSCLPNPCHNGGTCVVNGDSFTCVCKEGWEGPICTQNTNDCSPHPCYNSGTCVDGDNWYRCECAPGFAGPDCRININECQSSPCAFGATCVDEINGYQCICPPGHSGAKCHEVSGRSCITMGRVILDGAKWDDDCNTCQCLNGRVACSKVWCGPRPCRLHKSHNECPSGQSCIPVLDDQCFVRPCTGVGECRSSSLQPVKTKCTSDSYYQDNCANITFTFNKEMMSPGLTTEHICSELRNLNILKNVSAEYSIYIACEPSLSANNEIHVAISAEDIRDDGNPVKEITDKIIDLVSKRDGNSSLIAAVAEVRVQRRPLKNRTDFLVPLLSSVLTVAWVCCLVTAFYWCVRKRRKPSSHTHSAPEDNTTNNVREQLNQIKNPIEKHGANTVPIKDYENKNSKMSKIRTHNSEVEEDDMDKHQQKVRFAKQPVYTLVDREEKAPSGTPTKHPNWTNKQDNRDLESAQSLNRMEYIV
T3 sequence (P78504 185-335, form in doubt): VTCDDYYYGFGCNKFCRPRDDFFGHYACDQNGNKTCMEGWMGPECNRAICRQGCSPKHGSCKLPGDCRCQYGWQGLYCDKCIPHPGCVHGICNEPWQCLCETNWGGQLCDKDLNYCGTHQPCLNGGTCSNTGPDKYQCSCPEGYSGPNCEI

Binder	binding result [1]	binding result [2]	Kd [3] [nM]	Kd [4] [nM]	Kd [5] [nM]	Kd [6] [nM]	IC50 (read off the curve) [7] [µg/mL]	IC50 (read off the curve) [8] [µg/mL]	IC50 (read off the curve) [9] [µg/mL]
J1-65D variant 1 (antibody, human IgG1, V domains shown, human IgG1; also called J1-65DV1; V1) VH: QVQLVQSGAELKKPGSSVKVSCKASGYTFTDYEMHWVRQAPGQGLEWMGAIQPGGGGTAYNQKFKGRVTLTADKSTSTAYMELSSLRSEDTAVYYCTRRGYDDYPFAYWGQGTLVTVSS VL: DIQMTQSPSSLSASVGDRVTITCRASGNIHNYLAWYQQKPGKAPKLLIYNAKTLADDVPSRFSGSGSGTDYTLTISSLQPEDFATYYCQHFWSAPWTFGGGTKLEIKR	no binding (tested: 10 ug/ml)	no binding (tested: 10 ug/ml)	0.15						
J1-65D variant 12 (antibody, human IgG1, V domains shown, human IgG1; also called J1-65DV12; V12) VH: QVQLVQSGAEVKKPGSSVKVSCKASGYTFTDYEMHWVRQAPGQGLEWMGAIQPGGGGTAYAQKFQGRVTITADKSTSTAYMELSSLRSEDTAVYYCTRRGYDDYPFAYWGQGTLVTVSS VL: DIQMTQSPSSLSASVGDRVTITCRASGNIHNYLAWYQQKPGKAPKLLIYNAKTLADAVPSRFSGSGSGTDYTLTISSLQPEDFATYYCQHFWSAPWTFGQGTKLEIKR	no binding (tested: 10 ug/ml)	no binding (tested: 10 ug/ml)	0.0806						
J1-65D variant 2 (antibody, human IgG1, V domains shown, human IgG1; also called J1-65DV2; V2) VH: QVQLVQSGAELKKPGSSVKVSCKASGYTFTDYEMHWVRQAPGQGLEWMGAIQPGGGGTAYAQKFKGRVTLTADKSTSTAYMELSSLRSEDTAVYYCTRRGYDDYPFAYWGQGTLVTVSS VL: DIQMTQSPSSLSASVGDRVTITCRASGNIHNYLAWYQQKPGKAPKLLIYNAKTLADDVPSRFSGSGSGTDYTLTISSLQPEDFATYYCQHFWSAPWTFGGGTKLEIKR	no binding (tested: 10 ug/ml)	no binding (tested: 10 ug/ml)	0.165						
J1-65D variant 3 (antibody, human IgG1, V domains shown, human IgG1; also called J1-65DV3; V3) VH: QVQLVQSGAEVKKPGSSVKVSCKASGYTFTDYEMHWVRQAPGQGLEWMGAIQPGGGGTAYAQKFQGRVTLTADKSTSTAYMELSSLRSEDTAVYYCTRRGYDDYPFAYWGQGTLVTVSS VL: DIQMTQSPSSLSASVGDRVTITCRASGNIHNYLAWYQQKPGKAPKLLIYNAKTLADDVPSRFSGSGSGTDYTLTISSLQPEDFATYYCQHFWSAPWTFGGGTKLEIKR	no binding (tested: 10 ug/ml)	no binding (tested: 10 ug/ml)	0.158						
J1-65D variant 10 (antibody, human IgG1, V domains shown, human IgG1; also called J1-65DV10; V10) VH: QVQLVQSGAELKKPGSSVKVSCKASGYTFTDYEMHWVRQAPGQGLEWMGAIQPGGGGTAYAQKFKGRVTLTADKSTSTAYMELSSLRSEDTAVYYCTRRGYDDYPFAYWGQGTLVTVSS VL: DIQMTQSPSSLSASVGDRVTITCRASGNIHNYLAWYQQKPGKAPKLLIYNAKTLADAVPSRFSGSGSGTDYTLTISSLQPEDFATYYCQHFWSAPWTFGQGTKLEIKR	no binding (tested: 10 ug/ml)	no binding (tested: 10 ug/ml)	0.293						
J1-65D variant 8 (antibody, human IgG1, V domains shown, human IgG1; also called J1-65DV8; V8) VH: QVQLVQSGAEVKKPGSSVKVSCKASGYTFTDYEMHWVRQAPGQGLEWMGAIQPGGGGTAYAQKFQGRVTITADKSTSTAYMELSSLRSEDTAVYYCTRRGYDDYPFAYWGQGTLVTVSS VL: DIQMTQSPSSLSASVGDRVTITCRASGNIHNYLAWYQQKPGKAPKLLIYNAKTLADAVPSRFSGSGSGTDYTLTISSLQPEDFATYYCQHFWSAPWTFGGGTKLEIKR	no binding (tested: 10 ug/ml)	no binding (tested: 10 ug/ml)	0.0717						
J1-65D variant 5 (antibody, human IgG1, V domains shown, human IgG1; also called J1-65DV5; V5) VH: QVQLVQSGAELKKPGSSVKVSCKASGYTFTDYEMHWVRQAPGQGLEWMGAIQPGGGGTAYNQKFKGRVTLTADKSTSTAYMELSSLRSEDTAVYYCTRRGYDDYPFAYWGQGTLVTVSS VL: DIQMTQSPSSLSASVGDRVTITCRASGNIHNYLAWYQQKPGKAPKLLIYNAKTLADAVPSRFSGSGSGTDYTLTISSLQPEDFATYYCQHFWSAPWTFGGGTKLEIKR	no binding (tested: 10 ug/ml)	no binding (tested: 10 ug/ml)	0.0446						
J1-65D variant 9 (antibody, human IgG1, V domains shown, human IgG1; also called J1-65DV9; V9) VH: QVQLVQSGAELKKPGSSVKVSCKASGYTFTDYEMHWVRQAPGQGLEWMGAIQPGGGGTAYNQKFKGRVTLTADKSTSTAYMELSSLRSEDTAVYYCTRRGYDDYPFAYWGQGTLVTVSS VL: DIQMTQSPSSLSASVGDRVTITCRASGNIHNYLAWYQQKPGKAPKLLIYNAKTLADAVPSRFSGSGSGTDYTLTISSLQPEDFATYYCQHFWSAPWTFGQGTKLEIKR	no binding (tested: 10 ug/ml)	no binding (tested: 10 ug/ml)	0.0139						
J1-65D variant 11 (antibody, human IgG1, V domains shown, human IgG1; also called J1-65DV11; V11) VH: QVQLVQSGAEVKKPGSSVKVSCKASGYTFTDYEMHWVRQAPGQGLEWMGAIQPGGGGTAYAQKFQGRVTLTADKSTSTAYMELSSLRSEDTAVYYCTRRGYDDYPFAYWGQGTLVTVSS VL: DIQMTQSPSSLSASVGDRVTITCRASGNIHNYLAWYQQKPGKAPKLLIYNAKTLADAVPSRFSGSGSGTDYTLTISSLQPEDFATYYCQHFWSAPWTFGQGTKLEIKR	no binding (tested: 10 ug/ml)	no binding (tested: 10 ug/ml)	0.243						
J1-65D variant 7 (antibody, human IgG1, V domains shown, human IgG1; also called J1-65DV7; V7) VH: QVQLVQSGAEVKKPGSSVKVSCKASGYTFTDYEMHWVRQAPGQGLEWMGAIQPGGGGTAYAQKFQGRVTLTADKSTSTAYMELSSLRSEDTAVYYCTRRGYDDYPFAYWGQGTLVTVSS VL: DIQMTQSPSSLSASVGDRVTITCRASGNIHNYLAWYQQKPGKAPKLLIYNAKTLADAVPSRFSGSGSGTDYTLTISSLQPEDFATYYCQHFWSAPWTFGGGTKLEIKR	no binding (tested: 10 ug/ml)	no binding (tested: 10 ug/ml)	0.151						
J1-65D variant 4 (antibody, human IgG1, V domains shown, human IgG1; also called J1-65DV4; V4) VH: QVQLVQSGAEVKKPGSSVKVSCKASGYTFTDYEMHWVRQAPGQGLEWMGAIQPGGGGTAYAQKFQGRVTITADKSTSTAYMELSSLRSEDTAVYYCTRRGYDDYPFAYWGQGTLVTVSS VL: DIQMTQSPSSLSASVGDRVTITCRASGNIHNYLAWYQQKPGKAPKLLIYNAKTLADDVPSRFSGSGSGTDYTLTISSLQPEDFATYYCQHFWSAPWTFGGGTKLEIKR	no binding (tested: 10 ug/ml)	no binding (tested: 10 ug/ml)	0.0949						
J1-65D (antibody, V domains shown) VH: QVQLQQPGAELVRPGASVKLSCKALGYTFTDYEMHWVKETPVHGLEWIGAIQPGGGGTAYNQKFKGKATLTADKSSSTAYMELSSLTSEDSAVYYCTRRGYDDYPFAYWGQGTLVTVSS VL: DIQLTQSPASLSASVGETVTITCRASGNIHNYLAWYQQKQGKSPQLLVYNAKTLADDIPSRFSGSGSGTQYSLKINSLQPEDFGSYYCQHFWSAPWTFGGGTKLEIK			0.13	9.7	3.3	3	~1	~0.6	~0.5
J1-183D (antibody, V domains shown) VH: QVQLQQPGTELVRPGVSVKISCKVSGYAFTDYAIHWIMQSHAKSLEWIGIINTYYGDSKYNQKFKDKATMTVDKSSNTAYMELARLTSEDSAIYYCARGYDGFAYWGQGTLVTVSS VL: DIQLTQSPASLSASVGETVTFTCRTSENIYSYLTWYQQKQGKSPQLLVYNAKILAAGVPSRFSGYGSGTQFSLKINSLQPEDFGTYYCQHHYDIPWTFGGGTKLEIK			0.58	4.9	5.2	4.4			
